In US20250216381A1 (published 2025):

T1: ERGIC2 L176P peptide on HLA-A*03:01 (human)
T1 peptide: RIHGHPYVNK

T2: HELZ2 P775A peptide on HLA-DPA1*01:03 / HLA-DPB1*104:01 (human)
T2 peptide: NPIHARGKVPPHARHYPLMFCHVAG

T3: HELZ2 P775A peptide on HLA-DPA1*03:01 / HLA-DPB1*104:01 (human)
T3 peptide: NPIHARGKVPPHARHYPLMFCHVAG

T4: ARHGEF16 R150W peptide on HLA-DRA*01:01 / HLA-DRB1*11:01 (human)
T4 peptide: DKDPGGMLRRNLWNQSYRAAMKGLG

B1: 2599-TCR12 (TCR, V domains shown)
Valpha: EDKVVQSPLSLVVHEGDTVTLNCSYEVTNFRSLLWYKQEKKAPTFLFMLTSSGIEKKSGRLSSILDKKELFSILNITATQTGDSAIYLCGGLNAGGTSYGKLTFGQGTILTVHP
Vbeta: EPEVTQTPSHQVTQMGQEVILRCVPISNHLYFYWYRQILGQKVEFLVSFYNNEISEKSEIFDDQFSVERPDGSNFTLKIRSTKLEDSAMYFCASLGASTYEQYFGPGTRLTVT
B2: 6932-TCR5 (TCR, V domains shown)
Valpha: RKEVEQDPGPFNVPEGATVAFNCTYSNSASQSFFWYRQDCRKEPKLLMSVYSSGNEDGRFTAQLNRASQYISLLIRDSKLSDSATYLCVVKNQGGKLIFGQGTELSVKP
Vbeta: GVTQTPRYLIKTRGQQVTLSCSPISGHRSVSWYQQTPGQGLQFLFEYFSETQRNKGNFPGRFSGRQFSNSRSEMNVSTLELGDSALYLCASILGGGRGDTQYFGPGTRLTVL
B3: 8434-TCR20 (TCR, V domains shown)
Valpha: KQEVTQIPAALSVPEGENLVLNCSFTDSAIYNLQWFRQDPGKGLTSLLLIQSSQREQTSGRLNASLDKSSGRSTLYIAASQPGDSATYLCAVRHSGNTPLVFGKGTRLSVIA
Vbeta: AVVSQHPSRVICKSGTSVKIECRSLDFQATTMFWYRQFPKQSLMLMATSNEGSKATYEQGVEKDKFLINHASLTLSTLTVTSAHPEDSSFYICSASGGGRTEAFFGQGTRLTVV
B4: 8434-TCR21 (TCR, V domains shown)
Valpha: KQEVTQIPAALSVPEGENLVLNCSFTDSAIYNLQWFRQDPGKGLTSLLLIQSSQREQTSGRLNASLDKSSGRSTLYIAASQPGDSATYLCAVRRDGTASKLTFGTGTRLQVTL
Vbeta: AVVSQHPSWVICKSGTSVKIECRSLDFQATTMFWYRQFPKQSLMLMATSNEGSKATYEQGVEKDKFLINHASLTLSTLTVTSAHPEDSSFYICSASFPGRGNEQFFGPGTRLTVL
B5: 8434-TCR23 (TCR, V domains shown)
Valpha: QQQVKQSPQSLIVQKGGISIINCAYENTAFDYFPWYQQFPGKGPALLIAIRPDVSEKKEGRFTISFNKSAKQFSLHIMDSQPGDSATYFCAASRASGGSYIPTFGRGTSLIVHP
Vbeta: GITQSPKYLFRKEGQNVTLSCEQNLNHDAMYWYRQDPGQGLRLIYYSQIVNDFQKGDIAEGYSVSREKKESFPLTVTSAQKNPTAFYLCATKILAGANTGELFFGEGSRLTVL

Key:
Test in all cases: activation reporter or marker
[1] = molecular target: T1, ERGIC2 L176P peptide on HLA-A*03:01
[2] = molecular target: T2, HELZ2 P775A peptide on HLA-DPA1*01:03 / …
[3] = molecular target: T3, HELZ2 P775A peptide on HLA-DPA1*03:01 / …
[4] = molecular target: T4, ARHGEF16 R150W peptide on HLA-DRA*01:01 …

Row | Binder | binding result [4] | also measured
1 | B1 |  | binding result [1]: recognises
2 | B2 |  | binding result [2]: recognises; binding result [3]: recognises
3 | B3 | recognises | 
4 | B4 | recognises | 
5 | B5 | recognises | 
